Measured values from US20230203482A1, “Methods of Rescuing Stop Codons via Genetic Reassignment with ACE-tRNA” (THE WISTAR INSTITUTE OF ANATOMY AND BIOLOGY, priority 2017, published 2023).

B1: GluTAGchr13.trna2: ACE-tRNA Glu, TAG suppressor, SEQ ID NO: 38 (nucleic acid)
chain: CGTCTCCCACATGGTCTAGCGGTTAGGATTCCTGGTTCTAACCCAGGCGGCCCGGGTTCGACTCCCGGTGTGGGAA
modifications: expressed or natural sequence
B2: GluTAGchr2.trna18: ACE-tRNA Glu, TAG suppressor, SEQ ID NO: 39 (nucleic acid)
chain: CGTCTCCCATATGGTCTAGCGGTTAGGATTCCTGGTTCTAACCCAGGTGGCCCGGGTTCGACTCCCGGTATGGGAA
modifications: expressed or natural sequence
B3: GlnTAAchr1.trna17: ACE-tRNA Gln, TAA suppressor, SEQ ID NO: 26 (nucleic acid)
chain: CGTCGGTTCCATGGTGTAATGGTGAGCACTCTGGACTTTAAATCCAGCGATCCGAGTTCGAGTCTCGGTGGAACCT
modifications: expressed or natural sequence
B4: GlnTAAchr1.trna101: ACE-tRNA Gln, TAA suppressor, SEQ ID NO: 24 (nucleic acid)
chain: CGTCGGTTCCATGGTGTAATGGTAAGCACTCTGGACTTTAAATCCAGCGATCCGAGTTCGAGTCTCGGTGGAACCT
modifications: expressed or natural sequence
B5: GlnTAAchr6.trna63: ACE-tRNA Gln, TAA suppressor, SEQ ID NO: 29 (nucleic acid)
chain: CGTCGGTCCCATGGTGTAATGGTTAGCACTCTGGACTTTAAATCCAGCAATCCGAGTTCGAATCTCGGTGGGACCT
modifications: expressed or natural sequence
B6: GlnTAAchr17.trna14: ACE-tRNA Gln, TAA suppressor, SEQ ID NO: 28 (nucleic acid)
chain: CGTCGGTCCCATGGTGTAATGGTTAGCACTCTGGACTTTAAATCCAGCGATCCGAGTTCAAATCTCGGTGGGACCT
modifications: expressed or natural sequence
B7: GlnTAAchr6.trna1: ACE-tRNA Gln, TAA suppressor, SEQ ID NO: 27 (nucleic acid)
chain: CGTCGGTTCCATGGTGTAATGGTTAGCACTCTGGACTTTAAATCCAGCGATCCGAGTTCAAATCTCGGTGGAACCT
modifications: expressed or natural sequence
B8: GlnTAAchr6.trna175: ACE-tRNA Gln, TAA suppressor, SEQ ID NO: 25 (nucleic acid)
chain: CGTCGGCCCCATGGTGTAATGGTTAGCACTCTGGACTTTAAATCCAGCGATCCGAGTTCAAATCTCGGTGGGACCT
modifications: expressed or natural sequence
B9: GluTAGchr1.trna123: ACE-tRNA Glu, TAG suppressor, SEQ ID NO: 40 (nucleic acid)
chain: CGTCTCCCTGGTGGTCTAGTGGCTAGGATTCGGCGCTCTAACCGCCGCGGCCCGGGTTCGATTCCCGGTCAGGGAA
modifications: expressed or natural sequence
B10: GluTAGchr1.trna106: ACE-tRNA Glu, TAG suppressor, SEQ ID NO: 41 (nucleic acid)
chain: CGTCTCCCTGGTGGTCTAGTGGTTAGGATTCGGCGCTCTAACCGCCGCGGCCCGGGTTCGATTCCCGGTCAGGGAA
modifications: expressed or natural sequence

Assays:
Assay type in all cases: cell-based, human
[1] = system: native stop codons (TAA, TAG, TGA) of HEK293 transcripts; assay: Ribosome footprint profiling of transcriptome-wide 3′UTRs
Text: The question was raised whether ACE-tRNAs that show efficacious suppression of premature stop codons may also induce global readthrough of native stop codons. To address this potential “off target” suppression, a transcriptome-wide quantitative profile of actively engaged ribosomes on all cellular transcripts was obtained by generating libraries of ribosome footprints from HEK293 cells expressing exogenous ACE-tRNAs or a control mock plasmid (puc57GG). Streptomycin was removed from the growth media to prevent readthrough artifacts. For comparison, the ribosome footprint library was also generated from cells in the presence or absence of G418 (150 μM, 48 hours). […] Only transcripts with a minimum threshold of 5 RPKM in the coding sequence and 0.5 RPKM in the 3′UTR in two replicate libraries were included for the quantitation comparison (254 transcripts in G418 and 495-748 transcripts in ACE-tRNAs). […] ACE-tRNAs examined here had no detectable change of 3′UTR ribosome density with the exception of ACE-tRNA Gln-UAA and Arg-UGA which induced approximately a 2-fold increase in 3′UTR ribosome density for the cognate stop codon complimentary to the ACE-tRNA anticodon. Understanding the biological significance of 2-fold readthrough of protein stops will require further study, but this effect is substantially lower compared to the 100- to 1000-fold suppression of PTC for the same ACE-tRNA.
Multiple in-frame stop codons are frequently found at the end of genes^37-39 and may cause a minor difference in overall 3′UTR ribosome density for ACE-tRNA and G418 treatment. Ribosome occupancy was examined at each nucleotide in the 3′UTR within a 60 nt region downstream of the stop codons. […] Reads were normalized per total million-mapped reads, compared against control cells, and reported as a log 2-fold change as in panel A. More than 5,200 transcripts were mapped to at least 1 footprint in the region of interest. […] Taken together, the ribosome profiling data argue that efficiency of native stop codon suppression by ACE-tRNAs is generally low, and markedly less than the level of PTC suppression.
Ribosome Footprint Profiling Library preparation. HEK293 cells transiently transfected with ACE-tRNAs and control plasmid (puc57GG) were grown in standard grown media in the absence of Pen-Strep for 48 h. Libraries were prepared as described^55, with a few modifications. Briefly, cells were rapidly cooled by addition of ice-cold PBS, lysed in lysis buffer (20 mM Tris-HCl/pH7.4, 150 mM NaCl, 5 mM MgCl2, 1 mM DTT, 1% (v/v) Triton X-100, and 25 U ml^−1 Turbo DNase I) for 10 min on ice, and triturated with ten times through a 26-G needle. After clearance by centrifugation at 16,000 g for 10 min at 4° C., the lysates were digested with 100 U RNase I (Ambion, USA) per A260 lysate at room temperature for 45 min with gentle agitation prior to adding 200 U RiboLock RNase Inhibitor (Thermo Scientific). Ribosome protected mRNA fragments were then isolated by loading lysates onto a 1M sucrose cushion prepared in modified polysome buffer (20 mM Tris-HCl/pH7.4, 150 mM NaCl, 8.5 mM MgCl2, 0.5 mM DTT, 20 U ml^−1 RiboLock RNase Inhibitor) and centrifugated at 70,000 rpm at 4° C. for 2 h using a Beckmen TLA-110 rotor. Ribosome pellets containing mRNA footprints were extracted using TRIzol and separated on a denaturing 12% polyacrylamide gel containing 8M urea. RNA fragments with sizes ranging from 26 to 34 nt were manually excised from the gel stained with SYBR Gold (Invitrogen) and isolated to generate the ribosome-protected fragment library. Contaminating rRNA fragments depleted using a Ribo-Zero kit (Illumina). 3′ Oligonucleotide adaptor ligation, reverse transcription, circularization, and secondary rRNA depletion using biotinylated rRNA depletion oligos (Table 9) were performed as described^55. Libraries were barcoded using indexing primers for each sample during PCR amplification. […]

[2] = system: NLuc-UAG PTC; assay: NanoLuc nonsense reporter screen (all-in-one HTC plasmid), TAG/UAG PTC, HEK293 cells; conditions: Table 5, Glu TAG
Text: (§1) In order to enable the identification of the nucleotide composition and functional ability to suppress nonsense codons by new types of tRNA, an All-In-One Plasmid With A One Pot Cloning Reaction was invented for High Throughput Cloning FIG. 11. This approach enables the facile investigation of ACE-tRNA activity via luciferase activity in a standard 96 well format. Briefly, synthetic nucleotide sequences encoding for tRNA are ligated into the NanoLuc Reporter plasmid, with an example of the TGA nonsense reporter plasmid variant shown in FIG. 11. […] and TAG (amber) stop codon rescue vectors have been successfully designed and implemented in FIGS. 16-19. The benefits are the approach is that DNA oligos encoding for tRNA libraries can be ligated in the NanoLuc reporter plasmid with the presence of the restriction enzyme and ligase with the reaction pushed to nearly 100% incorporation of tRNA insert (FIG. 11)-thus the ‘one-pot’ designation. The reaction is transformed into E. coli, with the resultant cDNA purified by standard methods. Another benefit of the invented method is that the tRNA and reporter gen are within the single expression cassette, therefore lowering biological variability and improving data quality obtaining in resulting screens of tRNA suppression activity. The purified cDNA plasmids are then screened in high-throughput 96 well format for their ability to repair nonsense codons by inferred luciferase activity. The approach is suitable for the high-throughput screening of hundreds to thousands of tRNA for novel therapeutic activity.
(§2) The rationale of this study is rooted in the observation that there are multiple tRNA genes with unique sequences (isodecoders) for a given cognate amino acid (isoacceptors), leading to >400 tRNAs annotated in the human genome (http:lowelab.ucsc.edu/GtRNAdb/)^28, 29. First, tRNA genes were examined to identify individual ACE-tRNAs that retain suppression efficacy of PTCs in mammalian cells. In order to maximize sequence coverage, an all-in-one cDNA plasmid was generated that supports both high-throughput cloning (HTC) of ACE-tRNAs and quantitative measurement of PTC suppression using luminescence following delivery to mammalian cells, FIG. 21B. ACE-tRNA sequences were cloned as DNA oligos into the HTC plasmid using Golden Gate cloning^30 paired with ccdB negative selection^31. This strategy produced ˜100% cloning efficiency. ACE-tRNA suppression efficiency was read out from a split NanoLuc luciferase (NLuc) NanoBiT platform whereby the PTC of interest (UGA, UAA, or UAG) was introduced in-frame at the junction between the large bit and small bit domains, FIG. 21B^32, using a 96-well format and normalized to background obtained in NLuc-PTC expressing cells. Twenty-one glycine ACE-tRNAs were first evaluated for suppression of the UGA PTC, FIG. 22, top left, column 1 (violet). […] Given the high sequence conservation among the Gly-tRNAs screened for anti-codon tolerance (FIG. 27), it would be difficult to predict de novo which tRNA would be most amenable to anticodon-editing.
(§3) The parent plasmid used was pcDNA3.1(+). The cDNA encoding pNLuc was Gibson Assembled (New England Biolabs, USA) into restriction sites HindIII and XhoI. A glycine (codon gga), tryptophan ([…]), amber (tag), opal (tga) and ochre (taa), were added to amino acid position 160 during cDNA per. The pcDNA3.1(+) polyA sequence was replaced for one with no BbsI restriction sites using per based Gibson Assembly. The high throughput ACE-tRNA Golden Gate cloning site was generated by first inserting the 5′ leader sequence of the human tRNA^Tyr gene (bold) with a T7 promoter sequence upstream (italics)
(§4) tRNA gene sequences were obtained from the tRNA database tRNAscan-SE (http://gtrnadb.ucsc.edu/index.html; PMID: 26673694). […]

[3] = system: NLuc-UAA PTC; assay: NanoLuc nonsense reporter screen (all-in-one HTC plasmid), TAA/UAA PTC, HEK293 cells; conditions: Table 3, Gln TAA
Text: as §1, §2, §3, §4

Row | Molecule | Ranking [2] | Ranking [3] | further results
1 | CN[C@@H]1[C@@H](O)[C@@H](O[C@@H]2[C@@H](O)[C@H](O[C@H]3O[C@H]([C@@H](C)O)[C@@H](O)[C@H](O)[C@H]3N)[C@@H](N)C[C@H]2N)OC[C@]1(C)O [G418, reference compound] |  |  | ribosome occupancy at each nucleotide in the 3′UTR downstream of stop codons ([1]; HEK293, log 2-fold change versus control): no observable change of ribosome occupancy; change of 3′UTR ribosome density versus control ([1]; HEK293, G418 150 μM, 48 hours, cognate stop codon group): no observable effect
2 | B1 | #1 |  | 
3 | B2 | #2 |  | 
4 | B3 |  | #3 | 
5 | B4 |  | #1 | 
6 | B5 |  | #5.2 | 
7 | B6 |  | #5 | 
8 | B7 |  | #4 | 
9 | B8 |  | #2 | 
10 | B9 | #3 |  | 
11 | B10 | #4 |  | 
